According to article PMC2612750, “Identification of Pax6-Dependent Gene Regulatory Networks in the Mouse Lens”:

Assays:
Pax6 GST-PD/HD = Pax6 GST-PD/HD (UniProt P63015 4-269); test: EMSA; EMSA: 0.5-1 ng 5'-end-labelled probe, 2 ug poly(dI-dC), room temperature 10 min, 5% PAGE in 0.5x TBE; competitor 50 ng cold P6CON (~50:1); binding buffer, salt; conditions: protein: recombinant; tags: GST; label: 5'-end label (radioactive)
Pax6 GST-PD = Pax6 GST-PD (UniProt P63015 4-130); test: as above; conditions: protein: recombinant; tags: GST; label: 5'-end label (radioactive)
Sequence of Pax6 GST-PD (P63015 4-130): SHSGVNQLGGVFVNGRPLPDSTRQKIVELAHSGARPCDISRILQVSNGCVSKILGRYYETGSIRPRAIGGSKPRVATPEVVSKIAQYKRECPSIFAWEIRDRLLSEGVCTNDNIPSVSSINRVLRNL

Sequence of Pax6 GST-PD/HD (P63015 4-269): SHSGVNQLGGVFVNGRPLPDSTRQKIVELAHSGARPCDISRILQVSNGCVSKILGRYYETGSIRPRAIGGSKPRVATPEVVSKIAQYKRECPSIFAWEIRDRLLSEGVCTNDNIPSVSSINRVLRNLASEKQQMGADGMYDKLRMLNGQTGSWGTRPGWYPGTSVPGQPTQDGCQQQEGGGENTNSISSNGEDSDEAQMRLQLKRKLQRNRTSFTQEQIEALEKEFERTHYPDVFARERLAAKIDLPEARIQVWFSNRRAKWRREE

B1: P6CON (dsDNA)
DNA 1: GGATGCAATTTCACGCATGAGTGCCTCGAGGGATCCACGTCGA
DNA 2: TCGACGTGGATCCCTCGAGGCACTCATGCGTGAAATTGCATCC
B1: binds (Pax6 GST-PD/HD); binds (Pax6 GST-PD).
